Experimental data as given in article PMC12115719.

Biological target: Syngnathus scovelli chapparvovirus (SsChPV) VP, capsid protein (Syngnathus scovelli chapparvovirus)
Assay: cryo-EM structure

Syngnathus scovelli chapparvovirus (SsChPV) VP, capsid protein (natural protein)
stoichiometry N: 60
